Test results from paper PMC10897456, “B. subtilis MutS2 splits stalled ribosomes into subunits without mRNA cleavage” (The EMBO Journal, 2023).

Assays:
Experiment in all cases: cryo-EM structure; reconstituted complex: His-MutS2 WT in tenfold excess over purified B. subtilis disomes, 50 mM HEPES/KOH pH 7.5, 75 mM KOAc, 5 mM Mg(OAc)2, 45 mM NH4Cl, 4 mM MgCl2, 1 mM MnCl2, 1 mM AMP-PNP, 30 °C for 1 h; 3.8 Å
Conditions in all cases: both partners purified
ribosomal protein uS11 = ribosomal protein uS11 (B. subtilis (endogenous in B. subtilis …, UniProt P04969 1-131))
ribosomal protein uS10 = ribosomal protein uS10 (B. subtilis (endogenous in B. subtilis …, UniProt P21471 1-102))
ribosomal protein uS7 = ribosomal protein uS7 (B. subtilis (endogenous in B. subtilis …, UniProt P21469 1-156))

binding result (ribosomal protein uS11): binds
binding result (ribosomal protein uS10): binds
binding result (ribosomal protein uS7): binds
B1: His-MutS2 WT (recombinant B. subtilis MutS2) (natural protein)
chain: MQQKVLSALEFHKVKEQVIGHAASSLGKEMLLELKPSASIDEIKKQLDEVDEASDIIRLRGQAPFGGLVDIRGALRRAEIGSVLSPSEFTEISGLLYAVKQMKHFITQMAEDGVDIPLIHQHAEQLITLSDLERDINSCIDDHGEVLDHASETLRGIRTQLRTLESRVRDRLESMLRSSSASKMLSDTIVTIRNDRFVIPVKQEYRSSYGGIVHDTSSSGATLFIEPQAIVDMNNSLQQAKVKEKQEIERILRVLTEKTAEYTEELFLDLQVLQTLDFIFAKARYAKAVKATKPIMNDTGFIRLKKARHPLLPPDQVVANDIELGRDFSTIVITGPNTGGKTVTLKTLGLLTLMAQSGLHIPADEGSEAAVFEHVFADIGDEQSIEQSLSTFSSHMVNIVGILEQVNENSLVLFDELGAGTDPQEGAALAMSILDDVHRTNARVLATTHYPELKAYGYNREGVMNASVEFDIETLSPTYKLLIGVPGRSNAFEISKRLGLPDHIIGQAKSEMTAEHNEVDTMIASLEQSKKRAEEELSETESIRKEAEKLHKELQQQIIELNSKKDKMLEEAEQQAAEKVKAAMKEAEDIIHELRTIKEEHKSFKDHELINAKKRLEGAMPAFEKSKKPEKPKTQKRDFKPGDEVKVLTFGQKGTLLEKTGGNEWNVQIGILKMKVKEKDLEFIKSAPEPKKEKMITAVKGKDYHVSLELDLRGERYENALSRVEKYLDDAVLAGYPRVSIIHGKGTGALRKGVQDLLKNHRSVKSSRFGEAGEGGSGVTVVELK
notes: MutS2 of B. subtilis (87 kD); core/lever, clamp, P-loop ABC ATPase, KOW and SMR domains; SMR domain printed as residues 710-785; SEC: oligomer, consistent with a dimer or tetramer; the text calls it a homodimer on the disome; Only the KOW and SMR domains are resolved in the structure (AlphaFold2 models fitted as rigid bodies); also called RqcU; source: E. coli BL21(DE3), pET24d(+), purified …
